Results from US20090143241.

What was measured:
[1] = test system: IXP1, cyclic SGWYGRRH peptide
[2] = test system: GFP-tag (EGFP with the tmRNA peptide tag AANDENYALAA at the C terminus) [GFP: P42212]

Row | Substance | rate of ClpX ATP hydrolysis [1] | rate of ClpX ATP hydrolysis with GFP-tag included [1] | rate of GFP-tag proteolysis [1] | KM of GFP-tag degradation (ClpXP with SspB) [2] | KM of GFP-tag degradation (ClpXP with SspB, no cyclic peptide) [2] | kcat of GFP-tag degradation (ClpXP with SspB) [2] | kcat of GFP-tag degradation (ClpXP with SspB, no cyclic peptide) [2]
1 | ClpX (E. coli), N-terminally His6-tagged | The rate of ClpX ATP hydrolysis was not inhibited by IXP1 at concentrations up to 200 µM | IXP1 still had no effect on ClpX activity |  |  |  |  | 
2 | ClpXP protease (E. coli ClpX6 with ClpP14) |  |  | Inclusion of purified IXP1 reduced the rate of GFP-tag proteolysis | KM=0.74±0.04 | KM=0.74±0.04 µM | kcat=1.79±0.08 min-1 | kcat=1.79±0.08 min^-1
